Results: the supplement of paper PMC10724198
± gives the standard deviation of the averaged measurements.

test system: Saccharomyces cerevisiae; experiment: protein stability index of tFT-peptide fusion (C-terminal peptide) (PSI (0-1 scale)); higher = more stable (slower turnover); conditions: genetic background: wild type; temperature: 30 C
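Note: PSI is a weighted mean of sequencing reads over stability bins, variants kept only with over 10 reads, mCherry proximal and sfGFP distal, peptide attached via GGGS linker.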

Sequence	protein stability index
VVTEKLKRAARA	0.669 ± 0.021
VVVGRWSVLSSV	0.522 ± 0.017
VVVLGVGGVGWW	0.704 ± 0.019
VVWKRALWGEGL	0.791 ± 0.073
VWGGYGQFYGWK	0.606 ± 0.049
VWLGEYGVGCSV	0.655 ± 0.048
VWRVGRARGQMG	0.6953 ± 0.0017
VWSVDVSGCVVR	0.641 ± 0.031
VWVWHGAVLMGG	0.527 ± 0.017
VYASMFRAAWPF	0.746 ± 0.076
VYMAGSFSRLFQ	0.723 ± 0.034
VYSDSCLLRKTT	0.695 ± 0.02
VYTEFWERQGLL	0.796 ± 0.051
WACGYLGSTILS	0.643 ± 0.067
WAGSGCECTGGG	0.705 ± 0.0031
WAGVTLRLRSAV	0.682 ± 0.055
WANGEFSLGCGG	0.712 ± 0.017
WCGWGGVACLLL	0.681 ± 0.023
WCLNMLLIPSMY	0.605 ± 0.021
WCPGAGGAVVVV	0.658 ± 0.073
WCWVGRFVGLVR	0.447 ± 0.11
WDEDGIFDAGGA	0.6 ± 0.041
WDHGDHTAMVSI	0.683 ± 0.019

Sequence	protein stability index
WEAPCGGTLVGR	0.697 ± 0.048
WEWFKWRDHNRY	0.803 ± 0.037
WFCFGSFILCLL	0.492 ± 0.028
WFLLTSSTSRPP	0.737 ± 0.059
WGAAGRAGTERH	0.682 ± 0.029
WGCVGVVGLFSG	0.656 ± 0.047
WGEKTRKVQGCG	0.695 ± 0.066
WGGGGGRKVSVG	0.67 ± 0.082
WGGGGGWSGACL	0.6909 ± 0.0059
WGGGGLRGGWDG	0.738 ± 0.03
WGGGGLVVFGWK	0.698 ± 0.011
WGGGGVRGGMGG	0.781 ± 0.043
WGGGVLRRRVGA	0.752 ± 0.055
WGGLSRCAGVWL	0.632 ± 0.034
WGGSGGREPGGS	0.753 ± 0.066
WGGYSLKFRTRR	0.705 ± 0.0025
WGLGGVCAVRGS	0.575 ± 0.094
WGLGLLGGCWGV	0.679 ± 0.09
WGPGGVAWGAWW	0.7837 ± 0.0022
WGPPPPYSPFSL	0.713 ± 0.0089
WGPVPWWFGWMG	0.678 ± 0.027
WGRCLGWAGPAG	0.788 ± 0.11
WGRCVRGGRPWG	0.567 ± 0.021

Sequence	protein stability index
WGRGLESVKGGG	0.727 ± 0.018
WGTSGAMRGTEG	0.683 ± 0.022
WGVGWGMVEGWR	0.701 ± 0.019
WGVSVVEGGRSG	0.736 ± 0.093
WGWGGGRDGCGV	0.643 ± 0.1
WGWGGVRGGMGG	0.796 ± 0.08
WGWVLVGVGGLV	0.576 ± 0.091
WHEHGGVGTYFI	0.6743 ± 0.0043
WIFHHSKTTLAP	0.7158 ± 0.0052
WKGEMRDDGGRR	0.687 ± 0.041
WKGEREKQGKEG	0.589 ± 0.084
WKKDTKTKKKKN	0.695 ± 0.034
WKKSEKTEHEQI	0.653 ± 0.12
WKQKRGTHNIKD	0.722 ± 0.011
WLFLCWCFFCCL	0.597 ± 0.12
WLGLGGARGCML	0.745 ± 0.057
WLNMKFRTLCGS	0.634 ± 0.038
WLPRPHPPLRPA	0.724 ± 0.08
WLRPRSFSVVAT	0.52821 ± 0.00016
WLSMLLTVAPHH	0.64278 ± 0.00026
WLTCICSSVAPL	0.698 ± 0.042
WLVGEWPGRWGR	0.728 ± 0.037
WMSFLARVVTFE	0.716 ± 0.025

Sequence	protein stability index
WMSVCCRSALVD	0.65 ± 0.011
WMTFKKLQCNRT	0.682 ± 0.027
WNGIDQSMSGRR	0.694 ± 0.099
WPHAPSLPRFSG	0.69 ± 0.018
WPLSYLPLSSPP	0.701 ± 0.01
WPRVCPFSLYDA	0.723 ± 0.012
WRQRLKTNNITT	0.733 ± 0.018
WRRPKAGRHAPC	0.685 ± 0.0065
WRSGRGRCAVSQ	0.721 ± 0.045
WRTPVCSPFLLG	0.691 ± 0.0053
WSCTPRTPPPPR	0.7925 ± 0.002
WSESVKEASFTS	0.756 ± 0.028
WSFGRWGGAGAR	0.629 ± 0.044
WSFSSGCWGYVG	0.6281 ± 0.0036
WSGGAGGGGRLG	0.645 ± 0.088
WSIWRLPSFEWV	0.741 ± 0.04
WSKEQRRGGCGQ	0.714 ± 0.015
WSLIARYSPCHF	0.67 ± 0.027
WSRGGVLGVCCG	0.536 ± 0.031
WSSRGAIDSARH	0.762 ± 0.019
WSTGEKMALHGR	0.787 ± 0.12
WSTVCKIAGAID	0.706 ± 0.028
WTSPRISPRSPL	0.726 ± 0.014

Sequence	protein stability index
WVEACVCRGFVG	0.698 ± 0.059
WVGAVVGAGGRW	0.614 ± 0.089
WVGFRTFGVWGV	0.707 ± 0.063
WVGGDINFWWGG	0.747 ± 0.12
WVGGVACGAGGG	0.62 ± 0.069
WVKPVRAWTILR	0.605 ± 0.025
WVPGPLEPSLVL	0.774 ± 0.0096
WVPLGPFCLPLF	0.724 ± 0.1
WVPPPPYSPFSL	0.695 ± 0.027
WVRIGVEFGWGE	0.689 ± 0.11
WVRQYFRGLQLR	0.595 ± 0.074
WVSWGCCSFLLT	0.616 ± 0.0092
WVVSLTNSLAHV	0.581 ± 0.013
WVVSRGPFAVGP	0.68 ± 0.021
WWEVSFRVGAVR	0.648 ± 0.025
WWGRWPGLAGGR	0.716 ± 0.068
WWKLSGTGWGTL	0.73 ± 0.022
WWLRLVLCGWEW	0.721 ± 0.074
WWSFVGACDGVG	0.549 ± 0.012
WWWGGVRGGMGG	0.749 ± 0.026
YADAGRVSLWIA	0.5512 ± 0.0054
YAERNKKTLKDT	0.638 ± 0.011
YALWRFRSLADV	0.695 ± 0.1

Sequence	protein stability index
YCGGRCGGWEIG	0.698 ± 0.012
YCSITGIRLLVG	0.579 ± 0.023
YDAGWVDVLLVI	0.6419 ± 0.0064
YDGGLAALQVLL	0.68 ± 0.051
YDIAVDAEIDPY	0.685 ± 0.0081
YEKWIKKCNKEE	0.689 ± 0.068
YEQLSGHPPVVR	0.7236 ± 0.0014
YFGGMGPRGRER	0.683 ± 0.016
YFSQPLGPSPLL	0.812 ± 0.074
YFWTHLISIPDV	0.676 ± 0.062
YGCSRALGCMGG	0.596 ± 0.14
YGFLFRFLSPNP	0.6788 ± 0.0038
YGGLFFLVSLPP	0.566 ± 0.0082
YGIILPIRVSGF	0.631 ± 0.035
YGSGSDGRGGPG	0.662 ± 0.0077
YGVCFKAFQFKL	0.676 ± 0.056
YHALNSLHPPSP	0.69 ± 0.027
YHNFLPRPPRKR	0.662 ± 0.077
YIIEGKRKYNRI	0.682 ± 0.029
YILLGEFAGVFP	0.689 ± 0.17
YINIKKKKINKT	0.688 ± 0.039
YINVEPRITKNT	0.709 ± 0.0085
YIPPGNTTVPSC	0.694 ± 0.038

Sequence	protein stability index
YKPKGSKKFKNK	0.624 ± 0.029
YKSELSIPYAPV	0.687 ± 0.015
YLLDTLTAAREI	0.673 ± 0.016
YLLLVPDTRTLL	0.683 ± 0.0079
YLLYSDSLCFVT	0.659 ± 0.03
YLPDPVVSLAHS	0.656 ± 0.063
YLYLKSRDTFLN	0.7094 ± 0.0013
YMGDFRPAFAVT	0.64 ± 0.046
YMLSMIYEIEMM	0.578 ± 0.04
YNRALPGGQAML	0.795 ± 0.039
YPHPPRPSNQLF	0.615 ± 0.0079
YPIRPRYSPAGN	0.721 ± 0.043
YPPCSPGPLAPS	0.672 ± 0.026
YPPPPLPPPRPP	0.555 ± 0.015
YPPYPSHSSLHT	0.6987 ± 0.0062
YPSDLRPPSSPI	0.7512 ± 0.0041
YPSTESPAGLAL	0.726 ± 0.025
YPTQSPSPAPPT	0.644 ± 0.099
YQDDGRRPGFVI	0.675 ± 0.013
YQDGLCYYFCTT	0.559 ± 0.02
YQSHFERSGVAR	0.674 ± 0.077
YRFFGGYWETGW	0.744 ± 0.033
